From the nanobody polyreactivity screen of Harvey et al. (2022)

Assay: yeast display, Sf9 membrane polyspecificity reagent, FACS + sequencing; frameworks hold sequencing errors
Procedure, shortened: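 Sorting gates, low and high (top ~1%), were placed on anti-HA fluorescence to track expression and on streptavidin fluorescence to track reagent binding. A clone's polyreactivity label is taken from the gate it came out of. The reagent was 10% biotinylated, detergent-solubilized Sf9 membrane, applied for 1 hour at 4 °C to galactose-induced yeast display cells.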

Sequence | polyreactivity (PSR sort gate)
QVQLVESGGGLVQAGGSLRLSCAASGSILGINVMGWYRQAPGKERELVAAISWRGGRTYYADSVKGRFTISRDNAKNTVYLQMNSLKPEDTAVYYCAAYFYSTSYGADRGVDYWGQGTQVTVSS | high polyreactivity
QVQLVESGGGLVQAGGSLRLSCAASGSILGPYAMGWYRQAPGKERELVAANSQSGARTYYADSVKGRFTISRDNAKNTVYLQMNSLKPEDTAVYYCAAQSRKGGWSAYYYWGQGTQVTVSS | high polyreactivity
QVQLVESGGGLVQAGGSLRLSCAASGSILGQNAMGWSRQAPGKEREWVAAIRSSGGSTYYADSVKGRFTISRDNAKNTVYLQMNSRNPEDTAVYYCADDYYTSADYVDYYYWGQGTQVTVSS | low polyreactivity
QVQLVESGGGLVQAGGSLRLSCAASGSILGRYAMGWYRQAPGKERELVAAISYRGGSTYYADSVKGRFTISRDNAKNTVYLQMNSLKPEDTAVYYCATRDPAFYRRYDYWGQGTQVTVSS | high polyreactivity
QVQLVESGGGLVQAGGSLRLSCAASGSILGVYTMGWYRQAPGKERELVARIRLSGGSTYYADSVKGRFTISRDNAKNTVYLQMNSLIPEDTAVYYCAARYSRARFTDPYYYWGQGTQVTVSS | high polyreactivity
QVQLVESGGGLVQAGGSLRLSCAASGSILGYYVMGWYRQAPGKERELVAAISWSSGSTYYADSVKGRFTISRDNAKNTVYLQMNSLKPEDTAVYYCNASNVYFWFVTLEFDYWGQGTQVTVSS | low polyreactivity
QVQLVESGGGLVQAGGSLRLSCAASGSILIVYAMGWYRQAPGKERELVAAITRGGRTNYADSVKGRFTISRDYAKNTVYLQMNSLKPEDPAVYYCAAYTESYGGSDYDYWGQGTQVTVSS | high polyreactivity
QVQLVESGGGLVQAGGSLRLSCAASGSILKNNAMGWYRQAPGKERELVAAITYSSGSTYYADSVKGRFTISRDNAKNTVYLQMNILKPEDTAVYYCATDPEGSTGGGYEYWGQGTQVTVSS | low polyreactivity
QVQLVESGGGLVQAGGSLRLSCAASGSILKSNAMGGSRQAPGKARELVAANSSSGDSTYYADSVKGRFTISRDNAKNTVYLQMHSLKPADTAVYSCAARLRGRTRTGYYWGQGTQVTVSS | high polyreactivity
QVQLVESGGGLVQAGGSLRLSCAASGSILLEYAMGWYRQAPGKERELVAAISRGGTTNYADSVKGRFTISRDNAKNTVYLQMNSLKPEDTAVYYCAAGKIGRRGHQNRLDLDYWGQGTQVTVSS | low polyreactivity
QVQLVESGGGLVQAGGSLRLSCAASGSILNLNAMGWYRQAPGKERELVAAIRGGGRTNYADSVKGRFTISRDNAKNTVYLQMNSLKPEDTAVYYCAARITRPLTGYDYWGQGTQVTVSS | high polyreactivity
QVQLVESGGGLVQAGGSLRLSCAASGSILNSYAMGWYRQAPVKERELVARITGDGGITYYADSVKGRFTISRDNAKNTVYLQMNSLKPEDTAVYYCNAEVVALRRDTIYDYWGQGTQVTVSS | low polyreactivity
QVQLVESGGGLVQAGGSLRLSCAASGSILPGNTMGWYRQAPGKERELVASISNTGGNTYYADSVKGRFTISRDNAKNTVYLQMNSLKPEDTAVYYCAARFSLWFPTVYWEGILDYWGQGTQVTVSS | low polyreactivity
QVQLVESGGGLVQAGGSLRLSCAASGSILPLYAMGGYRQAPGKERELVATISNAGSTTYADSVKGRFTISRDNAKNTVYLQMNSLKPEVTAVYYCNAESEWGWVYVGYDYWGQGTQVTVSS | low polyreactivity
QVQLVESGGGLVQAGGSLRLSCAASGSILPVYAMGWYRQAPGKERELVAAISVSGGSTRYADSVKGRFTISRDNAKNTVYLQMNSLKPEDTAVYYCAARYRYSYGYWGQGTQVTVSS | high polyreactivity
QVQLVESGGGLVQAGGSLRLSCAASGSILPVYVMGWYRQAPGKERELVAAISSGGSTTYADSVKGRFTISRDNAKNTVYLQMNSLKPEDTAVYYCNADVVRGYSYIYRWPFRYAYDYWGQGTQVTVSS | low polyreactivity
QVQLVESGGGLVQAGGSLRLSCAASGSILQPNAMGWYRQAPGKERELVASITFSAGRTYYADSVKVRFTISRDNAKNTVYLQMNCLKPEDTAVYYCKAASDYRSSDYDYWGQGTQVTVSS | low polyreactivity
QVQLVESGGGLVQAGGSLRLSCAASGSILREYTMGWSRQAPGKEMELVAAITYSGDSTYYADSVKGRFTISRDNAKNTVYLHMNSLKPEDTAVYYCNKKYRSRWQGPFDYWGQGTLVTVSS | high polyreactivity
QVQLVESGGGLVQAGGSLRLSCAASGSILRPNAMGWYRQAPGKERELVAAITTSGGSTYYADSVKGRFTISRDNAKNTVYLQMNSLKPEDTAVYYCAARRQRDRYGYWGQGTQVTVSS | high polyreactivity
QVQLVESGGGLVQAGGSLRLSCAASGSILRRYAMGWYRQAPGKEREFVAAISYSGSRTYYADSVKGRFTISRDNAKNTVYLQMNSLKPEDTAVYFCAADSYGSRYEYWGQGTQVTVSS | high polyreactivity

Sequence | polyreactivity (PSR sort gate)
QVQLVESGGGLVQAGGSLRLSCAASGSILRVYAMGWYRQAPGKERELVAAISWGDGRTYYADSVKGRFTISRDNAKNTDYLQMNSLKPEDTAVYYCNADVFIQYWGVLIREYDYWGQGTQVTVSS | high polyreactivity
QVQLVESGGGLVQAGGSLRLSCAASGSILRYYAMGWYRQAPGKEREFVAAISWSGTSTYYADSVKGRFTISRDNAKNTVYLQMNSLKPEDTAVYYCAARTYYVPYYYWGQGTQVTVSS | high polyreactivity
QVQLVESGGGLVQAGGSLRLSCAASGSILSGYAMGWYRQAPGKERELVAAITSGGDTNYADSVKGRFTISRDNAKNTVYLQMNSLKPEDTAVYYCNRGGDFRIAYYDPMDYWGQGTQVTVSS | low polyreactivity
QVQLVESGGGLVQAGGSLRLSCAASGSILSSYAMGWYRQAPGKERELVAAISWRGGPTYYADSVKGRFTISRDNAKNTVYLQMNSLKPEDTAVYHCAAEFYDHPWLYDYWGQGTQVTVSS | low polyreactivity
QVQLVESGGGLVQAGGSLRLSCAASGSILSWYAMGWYRQAPGKERELVAAITGAGSTNYADSVKGRFTISRDNAKNTVYLQMNSLKPEDTAVYYCAADGSPWSWYSDGYWGQGTQVTVSS | low polyreactivity
QVQLVESGGGLVQAGGSLRLSCAASGSILSWYAMGWYRQAPGKERELVAAITGSGGTTYADSVKWRFTISRDNAKNTVYLQMNSLKPEDTAVYYCAADYLGIYDYWGQGTQVTVSS | high polyreactivity
QVQLVESGGGLVQAGGSLRLSCAASGSILSYNTMGWYRQAPGKEREFVAGITYSGSRTYYADSVKGRFTISRDNAKNPVYLQMNSLKPEDTAVYYCAAQYWQGDYDYWGQGTQVTVSS | high polyreactivity
QVQLVESGGGLVQAGGSLRLSCAASGSILSYYAMGWYRQAPGKERELVAAITGGGSTYYADSVKGRFTISRDNAKNTVYLQMNCLKPEVTAVYYCAALWWTYGIGYGYWGQGTLVTVSS | high polyreactivity
QVQLVESGGGLVQAGGSLRLSCAASGSILTDNAMRWYRQAPGKERELVAAITSGGSTYYADSVKGRFTISRDNAKNTVYLQMNSLKPEDTAVYYCNADPYTYSYGMYYWGQGTQVTVSS | low polyreactivity
QVQLVESGGGLVQAGGSLRLSCAASGSILTINAMGWYRQAPGKERELVAAITGNGGSTDYADSVKGRFTISRDTAKNTVYLQMNSLKPVDTAVYYCAARLYYFGRSGVKYRDGYWGQGTQVTVSS | high polyreactivity
QVQLVESGGGLVQAGGSLRLSCAASGSILTINAMGWYRQAPGKERELVARITISSGSTYYADSVKGRFTISRDNAKNTVYLQMNSLKPEDTAVYYCAVDTSYSDRYDYWGQGTQVTVSS | low polyreactivity
QVQLVESGGGLVQAGGSLRLSCAASGSILTRYAMGWYRQAPGKERELVAANTYSGDSTYYADSVKGRFTISRDNAKNTVYLQMNSLKPEDTAVYYCAARKYYARYYWGQGTQVTVSS | high polyreactivity
QVQLVESGGGLVQAGGSLRLSCAASGSILVQNAMGWYRQAPGKERELVAVINSGDSTNYADSVKGRFTISRDNAKNTVFLQMNSLKPEDTAVYYCAVDDVSYYYLRAYNYELSWYGSGLDYWGQGTQVTVSS | low polyreactivity
QVQLVESGGGLVQAGGSLRLSCAASGSILVSNDMGWYRQAPGKERELVAAISWSGGSTYYADSVKGRFTISRDNAKNTVYLQMNSLKPEDTAVYYCATGVALRYGYWGQGTQVTVSS | low polyreactivity
QVQLVESGGGLVQAGGSLRLSCAASGSILVTYAMGWYRQAPGKERELVAAISRGGRTYYADSVKGRFTISRDNAKNTVYLQMNSLKPEDTAVYYCNADRVTFSWPVNYYWVDYWGQGTQVTVSS | high polyreactivity
QVQLVESGGGLVQAGGSLRLSCAASGSILWENAKGWYRQAPGKERELVATISVSGGGTYYADSVKGRFTISRDNAKNTVYLQMNSLKPEDTAVYYCNARYGNESQGWEDYWGQGTQVTVSS | low polyreactivity
QVQLVESGGGLVQAGGSLRLSCAASGSILWLYAMGWYRQAPGKERELVAAISGSGRTNYADSVKGRFTISRDNAKNTVYLQMNSQKPEDTAVYYCARVHGTSESKYYYWGQGTQVTVSL | low polyreactivity
QVQLVESGGGLVQAGGSLRLSCAASGSILWLYVMGWYRQAPGKERELVATITSSGGSTYYADSVKGRFTISRDNAKNTVYLQMNSLKPEDTAVYYCAAQTYYSYDYWGQGTQVTVSS | low polyreactivity
QVQLVESGGGLVQAGGSLRLSCAASGSILYNNAMGWYRQAPGKERELVAAIDLSTGSTYYADSVKGRFTISRDNAKNTVYLQMNSLKPEDSSVYYCAAGKPLGSSTKYRPYDYWGQGTQVTVSS | low polyreactivity
QVQLVESGGGLVQAGGSLRLSCAASGSILYSYTMGWYRQAPGKERELVAAINRGGRTNYADSVKGRFTISRDNAKNTVYLQMNSLKPEDTAVYYCNTGIYAWSWRRAMDYWGQGTQVTVSS | high polyreactivity
